Results as given in patent US20230190950A1, “COMPOSITIONS AND METHODS FOR THE TREATMENT OF BACTERIAL INFECTIONS” (Cidara Therapeutics, Inc., priority 2017, published 2023).

T1: recombinant mouse FcRn (Mus musculus, UniProt Q61559)
T1 construct: purchased R&D 6775-FC-050
T1 sequence (Q61559 22-297 limits assumed): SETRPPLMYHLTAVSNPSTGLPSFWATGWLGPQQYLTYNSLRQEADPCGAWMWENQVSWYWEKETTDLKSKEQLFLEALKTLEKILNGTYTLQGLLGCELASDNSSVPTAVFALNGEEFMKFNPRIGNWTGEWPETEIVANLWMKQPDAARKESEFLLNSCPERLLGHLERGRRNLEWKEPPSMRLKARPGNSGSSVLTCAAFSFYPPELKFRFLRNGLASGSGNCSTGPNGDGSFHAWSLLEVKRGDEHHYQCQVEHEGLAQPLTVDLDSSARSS
T1 sequence (P01887 21-119 partner): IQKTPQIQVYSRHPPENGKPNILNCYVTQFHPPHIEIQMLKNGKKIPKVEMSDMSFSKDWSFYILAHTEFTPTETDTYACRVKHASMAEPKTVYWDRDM

B1: control molecule: "unconjugated control Fc molecule (m-IgG2a type; SEQ ID NO: 2)" (protein, listed as Mus musculus)
chain: PRGPTIKPCPPCKCPAPNLLGGPSVFIFPPKIKDVLMISLSPIVTCVVVDVSEDDPDVQISWFVNNVEVHTAQTQTHREDYNSTLRVVSALPIQHQDWMSGKEFKCKVNNKDLPAPIERTISKPKGSVRAPQVYVLPPPEEEMTKKQVTLTCMVTDFMPEDIYVEWTNNGKTELNYKNTEPVLDSDGSYFMYSKLRVEKKNWVERNSYSCSVVHEGLHNHHTTKSFSRTPGK
B2: Conjugate 15 (conjugate)
chain: PRGPTIKPCPPCKCPAPNLLGGPSVFIFPPKIKDVLMISLSPIVTCVVVDVSEDDPDVQISWFVNNVEVHTAQTQTHREDYNSTLRVVSALPIQHQDWMSGKEFKCKVNNKDLPAPIERTISKPKGSVRAPQVYVLPPPEEEMTKKQVTLTCMVTDFMPEDIYVEWTNNGKTELNYKNTEPVLDSDGSYFMYSKLRVEKKNWVERNSYSCSVVHEGLHNHHTTKSFSRTPGKHHHHHH
modifications: cyclised or stapled
B3: Conjugate 26: "Conjugate of m-IgG2a(His)6 Fc-3(Int-13)"; mlgG2a(His)6 Fc (SEQ ID NO: 6), reduced hinge disulfides; DAR=2/Fc dimer (conjugate)
chain: B2 chain
modifications: conjugated to Int-13 at hinge cysteines
notes: "Conjugate of m-IgG2a(His)6 Fc-3(Int-13)"; DAR=2/Fc dimer
B4: Conjugate 4 (conjugate)
chain: B2 chain
modifications: cyclised or stapled

Key:
[1] = test system: E. coli ATCC 25922; assay: Complement-dependent cytotoxicity (CDC) assay; format: cell-based, Escherichia coli; conditions: 0.2 uM; 10% normal human serum; 90 minutes
Experimental: Gram-negative bacteria were cultured overnight in Luria-Bertani (LB) (BD Difco™ Cat. 244620) at 37° C. under constant agitation. The next day, bacteria were grown to log phase until the OD600 reached 0.4 (˜10^8 CFU/mL). Bacteria were washed in DPBS pH 7.4 (Gibco 10010-023) resuspended in RPMI 1640 (Gibco 11-835-055) at 10^6 CFU/mL and […] was added to the wells of a 96-well, TC-treated, polystyrene plate (Fisher 08-772-2C).
The plates were incubated at 37° C. for 90 minutes. At the end of the assay, wells were serially diluted in sterile water and remaining bacteria were cultured overnight at 37° C. on agar plates. Colonies were counted the next day and CFU/mL and % survival normalized to RPMI control was determined using the following equations: CFU/mL=(colonies*dilution factor)/volume and […] normalized to RPMI=([CFU/mL of test condition]/[CFU/mL of molecule in RPMI])*100.

[2] = test system: Escherichia coli BW25113; assay: MIC assay (broth microdilution), Ec BW; format: cell-based; conditions: assay media RPMI A; for MIC, Ec BW + FBS: 50% heat-inactivated FBS
Experimental: (§1) Bacterial strains were stored as glycerol stocks at −80° C. prior to culturing on cation-adjusted Mueller-Hinton agar (MHA; BD cat. no. 211438) at 37° C. Antibacterial activity was assessed against a panel consisting of Escherichia coli, Acinetobacter baumannii, Pseudomonas aeruginosa, and Klebsiella pneumoniae strains (see Table 2).
(§2) Briefly, stock solutions of all antibacterial agents were prepared fresh in appropriate solvents (i.e. PBS, pH 7.4, DMSO, DI, etc.). Stock concentrations were made at 50× the highest final assay concentration and serially diluted 2-fold, 8 or 12 times in a 96-well PCR plate (VWR cat. no. 83007-374). Bacterial cell suspensions generated from MHA plate cultures were prepared in 0.85% saline and adjusted to ˜0.1 OD600 nm. […] Dorschner R A et al., The mammalian ionic environment dictates microbial susceptibility to antimicrobial defense peptides. FASEB J. 20(1):35-42 (2017). Ninety-eight microliters of each cell suspension in MHB were added to test wells in a 96-well assay plate (Costar cat. no. 3370). A Beckman Multimek 96 liquid handling robot was used to dispense 2 μL of each 50× stock compound into the plate containing 98 μL of each strain in MHB (2% final solvent concentration). E. coli strains BW25113 and ATCC 25922 were run in the presence and absence of 50% heat-inactivated fetal bovine serum (FBS; Sigma, cat. no. F4135-100 mL). Plates were mixed by shaking then incubated at 37° C. overnight (16-20 h).

[3] = test system: Escherichia coli BW25113 + pUC18-mcr-1; assay: MIC assay (broth microdilution), Ec BW (mcr-1); format: cell-based; conditions: assay media RPMI A
Source text: An mcr-1 expression plasmid was constructed (GenScript; Piscataway, N.J.) using the pUC18 high copy number plasmid (Yanisch-Perron, et al., 1985). A 1649-bp fragment was synthesized containing, in order from 5′ to 3′: EcoR1 restriction site (5′-GAATTC-3′), a ribosomal binding site (5′-AGGAGG-3′), a 5-bp native start codon upstream sequence (5′-TTCTC-3′) from the mcr-1-bearing plasmid pHNSHP45 (Liu, Y Y, et al., 2015; GenBank Accession #KP347127), the 1626-bp mcr-1 open reading frame with stop codon (“orf00073” of GenBank Accession #KP347127), and finally an Xba1 restriction site sequence (5′-TCTAGA-3′). […] The pUC18-mcr-1 plasmid was transformed into chemically-competent E. coli BW25113 (Coli Genetic Stock Center #7636) as described previously (Chung, et al., PNAS. 1989), recovered for 1 h shaking at 37° C. in Super Optimal broth with Catabolite repression (SOC) media and then aliquots were plated on Luria-Bertani (LB) media containing 100 μg/mL of carbenicillin. Putative transformant colonies were then verified in MIC assays.
as §1
Briefly, stock solutions of all antibacterial agents were prepared fresh in appropriate solvents (i.e. PBS, pH 7.4, DMSO, DI, etc.). Stock concentrations were made at 50× the highest final assay concentration and serially diluted 2-fold, 8 or 12 times in a 96-well PCR plate (VWR cat. no. 83007-374). Bacterial cell suspensions generated from MHA plate cultures were prepared in 0.85% saline and adjusted to ˜0.1 OD600 nm. […] Later, conjugates 16 and 17, and 20-25 were evaluated in RPMI 1640 medium (+) L-glutamine, (+) sodium bicarbonate, pH 7.4 (“RPMI B”; Gibco, cat. no. 11875-085) as has been described as a more physiologically-relevant media for susceptibility testing of antibacterial compounds. […]

[4] = test system: Escherichia coli BW25113 4X-12 (COL-R); assay: MIC assay (broth microdilution), Ec BW 4X-12 (COL-R); format: cell-based; conditions: assay media RPMI A
Experimental: as §1
(§3) Briefly, stock solutions of all antibacterial agents were prepared fresh in appropriate solvents (i.e. PBS, pH 7.4, DMSO, DI, etc.). Stock concentrations were made at 50× the highest final assay concentration and serially diluted 2-fold, 8 or 12 times in a 96-well PCR plate (VWR cat. no. 83007-374). Bacterial cell suspensions generated from MHA plate cultures were prepared in 0.85% saline and adjusted to ˜0.1 OD600 nm. Next, cell suspensions were diluted 1:200 in RPMI containing 5% Luria Broth (LB) to improve bacterial growth (BD Difco, cat. no. 244620) to a concentration of ˜5×10^5 CFU (colony-forming units)/mL. […] Later, conjugates 16 and 17, and 20-25 were evaluated in RPMI 1640 medium (+) L-glutamine, (+) sodium bicarbonate, pH 7.4 (“RPMI B”; Gibco, cat. no. 11875-085) as has been described as a more physiologically-relevant media for susceptibility testing of antibacterial compounds. Dorschner R A et al., The mammalian ionic environment dictates microbial susceptibility to antimicrobial defense peptides. FASEB J. 20(1):35-42 (2017). Ninety-eight microliters of each cell suspension in MHB were added to test wells in a 96-well assay plate (Costar cat. no. 3370). A Beckman Multimek 96 liquid handling robot was used to dispense 2 μL of each 50× stock compound into the plate containing 98 μL of each strain in MHB (2% final solvent concentration). E. coli strains BW25113 and ATCC 25922 were run in the presence and absence of 50% heat-inactivated fetal bovine serum (FBS; Sigma, cat. no. F4135-100 mL). Plates were mixed by shaking then incubated at 37° C. overnight (16-20 h).

[5] = test system: Escherichia coli ATCC 25922; assay: MIC assay (broth microdilution), Ec 25922; format: cell-based; conditions: assay media RPMI A; for MIC, Ec 25922 + FBS: 50% heat-inactivated FBS
Experimental: as §1, §2

[6] = test system: Escherichia coli ATCC BAA-2469; assay: MIC assay (broth microdilution), Ec 2469; format: cell-based; conditions: assay media RPMI A
Experimental: as §1, §2

[7] = test system: Acinetobacter baumannii ATCC 19606; assay: MIC assay (broth microdilution), Ab 19606; format: cell-based; conditions: assay media RPMI A
Experimental: as §1, §2

[8] = test system: Acinetobacter baumannii ABS075-UW; assay: MIC assay (broth microdilution), Ab ABS075; format: cell-based; conditions: assay media RPMI A
Experimental: as §1, §2

[9] = test system: Pseudomonas aeruginosa PAO1; assay: MIC assay (broth microdilution), Pa PAO1; format: cell-based; conditions: assay media RPMI A
Experimental: as §1, §3

[10] = target: T1, recombinant mouse FcRn; assay: Binding of conjugates to FcRn (ELISA), mouse; conditions: pH 6.25; 20 μg/mL starting concentration, 2-fold diluted
Experimental: 96-well ELISA plates (Fisher, Cat. No. 12-565-136) were coated with 0.25 μg/well of recombinant mouse FcRn (R&D, Cat. No. 6775-FC-050) or recombinant human FcRn (R&D, Cat. No. 8639-FC-050) in carbonate-bicarbonate buffer (Sigma, Cat. No. C34041) at pH 6.25 overnight at 37° C. A pH of 6.25 was maintained during the complete experiment. Blocking was carried out with 5% skim milk in PBS with 0.05% Tween 20. Purified conjugates were added at 20 μg/mL starting concentration and serially 2-fold diluted in blocking buffer. For detection, HRP-labeled secondary anti-mouse IgG-HRP (GE Healthcare, Cat. No. NA931V) or anti-human IgG-HRP (GE Healthcare, Cat. No. NA933V) was used to detect the bound conjugates. Absorbance was measured at 450 nm with a 96-well microplate reader and data were analyzed using GraphPad Prism software, FIGS. 33A-33F.

[11] = test system: Acinetobacter baumannii ATCC 179778; assay: MIC assay (broth microdilution), Ab 17978; format: cell-based; conditions: assay media RPMI A
Experimental: as §1
(§4) Briefly, stock solutions of all antibacterial agents were prepared fresh in appropriate solvents (i.e. PBS, pH 7.4, DMSO, DI, etc.). Stock concentrations were made at 50× the highest final assay concentration and serially diluted 2-fold, 8 or 12 times in a 96-well PCR plate (VWR cat. no. 83007-374). Bacterial cell suspensions generated from MHA plate cultures were prepared in 0.85% saline and adjusted to ˜0.1 OD600 nm. Next, cell suspensions were diluted 1:200 in RPMI containing 5% Luria Broth (LB) to improve bacterial growth (BD Difco, cat. no. 244620) to a concentration of ˜5×10^5 CFU (colony-forming units)/mL. […] Later, conjugates 16 and 17, and 20-25 were evaluated in RPMI 1640 medium (+) L-glutamine, (+) sodium bicarbonate, pH 7.4 (“RPMI B”; Gibco, cat. no. 11875-085) as has been described as a more physiologically-relevant media for susceptibility testing of antibacterial compounds. Dorschner R A et al., The mammalian ionic environment dictates microbial susceptibility to antimicrobial defense peptides. FASEB J. 20(1):35-42 (2017). […]

[12] = test system: Pseudomonas aeruginosa ATCC 27853; assay: MIC assay (broth microdilution), Pa 27853; format: cell-based; conditions: assay media RPMI A
Experimental: as §1, §4

Molecule | antibacterial activity in the presence of 10% complement active NHS [1] | MIC, Ec BW [2] | MIC, Ec BW + FBS [2] | MIC, Ec BW (mcr-1) [3] | MIC, Ec BW 4X-12 (COL-R) [4] | MIC, Ec 25922 [5] | MIC, Ec 25922 + FBS [5] | MIC, Ec 2469 [6] | MIC Ab 19606 [7] | MIC Ab AB5075 [8] | MIC Pa PAO1 [9] | binding to mouse FcRn (ELISA) [10] | MIC Ab 17978 [11] | MIC Pa 27853 [12]
B1 | no antibacterial activity |  |  |  |  |  |  |  |  |  |  |  |  | 
B2 |  | >128 mg/L | >128 mg/L | >128 mg/L | >128 mg/L | >128 mg/L | >128 mg/L | >128 mg/L | >128 mg/L | >128 mg/L | 16 mg/L | does not interfere with FcRn interaction |  | 
B3 |  | 16 mg/L | 32 mg/L | >128 mg/L | >128 mg/L | >128 mg/L | 128 mg/L | 32 mg/L | 128 mg/L | 32 mg/L | 64 mg/L |  | 64 mg/L | 16 mg/L
B4 |  | 32 mg/L | 32 mg/L | >128 mg/L | >128 mg/L | >128 mg/L | 64 mg/L | >128 mg/L | 32 mg/L | 32 mg/L | 16 mg/L | does not interfere with FcRn interaction |  | 
